Reference: patent publication US20140274874A1 (Amgen, published 2014)
Where a chain is given by its changes, count along the chain named. Numbers in names are those of the source.

Assays:
Assay in all cases: cell-based or functional assay
[1] = target: T1, MMP2 (human pro-MMP2 activated with APMA) (human, UniProt P08253 30-660)
T1 sequence (looked up): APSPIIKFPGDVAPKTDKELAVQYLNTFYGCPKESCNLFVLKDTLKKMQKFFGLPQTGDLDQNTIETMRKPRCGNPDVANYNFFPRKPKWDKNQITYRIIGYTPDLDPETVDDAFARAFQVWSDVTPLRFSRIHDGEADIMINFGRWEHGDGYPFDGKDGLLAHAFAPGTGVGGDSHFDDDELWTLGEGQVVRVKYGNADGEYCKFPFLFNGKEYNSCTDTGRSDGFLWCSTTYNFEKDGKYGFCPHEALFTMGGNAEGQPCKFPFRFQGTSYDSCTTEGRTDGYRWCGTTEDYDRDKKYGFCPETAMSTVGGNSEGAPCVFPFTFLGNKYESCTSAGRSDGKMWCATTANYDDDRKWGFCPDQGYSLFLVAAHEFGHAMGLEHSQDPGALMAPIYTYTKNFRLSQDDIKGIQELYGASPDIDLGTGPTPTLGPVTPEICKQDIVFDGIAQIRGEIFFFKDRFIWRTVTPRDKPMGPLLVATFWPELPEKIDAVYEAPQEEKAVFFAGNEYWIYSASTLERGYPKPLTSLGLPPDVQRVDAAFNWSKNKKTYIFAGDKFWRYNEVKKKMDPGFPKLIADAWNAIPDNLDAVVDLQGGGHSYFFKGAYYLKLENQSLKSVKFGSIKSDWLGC

[2] = target: catalytic domain of human MMP9 (human, UniProt P14780 107-444, limits assumed)
[3] = target: MMP13 (active MMP13, or pro-MMP-13 activated with APMA) (UniProt P45452 20-471, limits assumed)

catalytic domain of human MMP9, sequence (P14780 107-444 limits assumed): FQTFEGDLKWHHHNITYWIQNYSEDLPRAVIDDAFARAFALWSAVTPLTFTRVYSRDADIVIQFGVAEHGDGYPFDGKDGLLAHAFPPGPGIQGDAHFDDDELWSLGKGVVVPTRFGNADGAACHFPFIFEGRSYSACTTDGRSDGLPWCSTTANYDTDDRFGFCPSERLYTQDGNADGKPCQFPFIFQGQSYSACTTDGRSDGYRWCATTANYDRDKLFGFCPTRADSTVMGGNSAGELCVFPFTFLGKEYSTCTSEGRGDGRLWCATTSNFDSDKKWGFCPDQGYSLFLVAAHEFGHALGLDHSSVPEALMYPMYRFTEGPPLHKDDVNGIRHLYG

B1: wild-type TIMP-3 (native human tissue inhibitor of metalloproteinase 3) (other)
chain: CTCSPSHPQDAFCNSDIVIRAKVVGKKLVKEGPFGTLVYTIKQMKMYRGFTKMPHVQYIHTEASESLCGLKLEVNKYQYLLTGRVYDGKMYTGLCNFVERWDQLTLSQRKGLNYRYHLGCNCKIKSCYYLPCFVTSKNECLWTDMLSNFGYPGYQSKHYACIRQKGGYCSWYRGWAPPDKSIINATDP
- MMP2 IC50 [1]: 0.6 nM
- MMP9 IC50 [2]: 1 nM
- MMP13 IC50 [3]: 0.9 nM

B2: TIMP-3 mutein T63N, K65T (other)
chain: B1 chain with T40N, K42T
- MMP2 IC50 [1]: 0.8 nM
- MMP9 IC50 [2]: 0.5 nM
- MMP13 IC50 [3]: 2.2 nM

B3: TIMP-3 mutein P56N, G58T (other)
chain: B1 chain with P33N, G35T
- MMP2 IC50 [1]: 1 nM
- MMP9 IC50 [2]: 2.3 nM
- MMP13 IC50 [3]: 3.1 nM

B4: TIMP-3 mutein K45S, F57N (other)
chain: B1 chain with K22S, F34N
- MMP2 IC50 [1]: 0.3 nM
- MMP9 IC50 [2]: 4 nM

B5: TIMP-3 mutein F57N (other)
chain: B1 chain with F34N
- MMP2 IC50 [1]: 0.5 nM
- MMP9 IC50 [2]: 4.6 nM
- MMP13 IC50 [3]: 0.5 nM
